Measurements reported in patent US20180298070A1, “PEPTIDE COMPOUND” (Takeda Pharmaceutical Company Limited, published 2018).

target: human GLP-1R (human, UniProt P43220); test: cell-based or functional assay

| Binder | Agonist activity (EC50, M) [M] |
| --- | --- |
| YXEGTXISDYSIXXDRXAQXNFVNWXLAQRPSSGAPPPSR (N-methyl on Tyr1 (Me-Tyr); Aib at 2, 13, 17, 20; Iva at 6, 26; Lys(Hepda-GGGGGG-) at 14; C-terminal NH2) [Compound 506] | > 1e-06 |
| YXEGTXISDYSIXXDRXAQXNFVNWXLAQRPSSGAPPPSR (N-methyl on Tyr1 (Me-Tyr); Aib at 2, 13, 17, 20; Iva at 6, 26; Lys(Eda-GGGGGG-) at 14; C-terminal NH2) [Compound 520] | > 1e-06 |
| YXEGTFISDYSIAXDRXHQXNFVNWXLAQRPSSGAPPPSR (not fully specified; N-methyl on Tyr1 (Me-Tyr); Aib at 2, 13, 17, 20; Iva at 6, 26; Lys(Eda-GGGGGG-) at 14; C-terminal NH2) [Compound 522] | > 1e-06 |
| YXEGTXISDYSIXLDRXHQXNFVNWXLAQRPSSGAPPPS (N-methyl on Tyr1 (Me-Tyr); Aib at 2, 13, 20; Iva at 6, 26; Lys(Oda-GGGGGG-) at 17; C-terminal NH2) [Compound 492] | > 1e-06 |
| YXEGTXISDYSIXXDRXHQXNFVNWXLAQRPSSGAPPPS (N-methyl on Tyr1 (Me-Tyr); Aib at 2, 13, 17, 20; Iva at 6, 26; Lys(Heda-GGGGGG-) at 14; C-terminal NH2) [Compound 509] | > 1e-06 |
| YXEGTXISDYSIXLDRXAQXNFVNWXLAQRPSSGAPPPS (N-methyl on Tyr1 (Me-Tyr); Aib at 2, 13, 20; Iva at 6, 26; Lys(Oda-GGGGGG-) at 17; C-terminal NH2) [Compound 496] | > 1e-06 |
| YXEGTXISDYSIXLDRXAQXNFVNWXLAQRPSSGAPPPS (N-methyl on Tyr1 (Me-Tyr); Aib at 2, 13, 20; Iva at 6, 26; Lys(Heda-GGGGGG-) at 17; C-terminal NH2) [Compound 494] | > 1e-06 |
| YXEGTXISDYSIXXDRXHQXNFVNWXLAQRPSSGAPPPS (N-methyl on Tyr1 (Me-Tyr); Aib at 2, 13, 17, 20; Iva at 6, 26; Lys(Heda-GGGGG-) at 14; C-terminal NH2) [Compound 507] | > 1e-06 |
| YXEGTXISDYSIXXDRXHQXNFVNWXLAQRPSSGAPPPS (N-methyl on Tyr1 (Me-Tyr); Aib at 2, 13, 17, 20; Iva at 6, 26; Lys(Hepda-GGGGG-) at 14; C-terminal NH2) [Compound 508] | > 1e-06 |
| YXEGTXISDYSIXXDRXHQXNFVNWXLAQRPSSGAPPPS (N-methyl on Tyr1 (Me-Tyr); Aib at 2, 13, 17, 20; Iva at 6, 26; Lys(Hepda-GGGGGG-) at 14; C-terminal NH2) [Compound 510] | > 1e-06 |
| YXEGTXISDYSIXLDRXHQXNFVNWXLAQRPSSGAPPPS (N-methyl on Tyr1 (Me-Tyr); Aib at 2, 13, 20; Iva at 6, 26; Lys(Eda-GGGGG-) at 17; C-terminal NH2) [Compound 493] | > 1e-06 |
| YXEGTXISDYSIXLDRXHQXNFVNWXLAQRPSSGAPPPS (N-methyl on Tyr1 (Me-Tyr); Aib at 2, 13, 20; Iva at 6, 26; Lys(Heda-GGGGGG-) at 17; C-terminal NH2) [Compound 503] | > 1e-06 |
| YXEGTXISDYSIXLDRXHQXNFVNWXLAQRPSSGAPPPS (N-methyl on Tyr1 (Me-Tyr); Aib at 2, 13, 20; Iva at 6, 26; Lys(Hepda-GGGGG-) at 17; C-terminal NH2) [Compound 502] | > 1e-06 |
| YXEGTXISDYSIXLDRXAQXNFVNWXLAQRPSSGAPPPS (N-methyl on Tyr1 (Me-Tyr); Aib at 2, 13, 20; Iva at 6, 26; Lys(Hepda-GGGGGG-) at 17; C-terminal NH2) [Compound 495] | > 1e-06 |
| YXEGTXISDYSIXXDRXHQXNFVNWXLAQRPSSGAPPPS (N-methyl on Tyr1 (Me-Tyr); Aib at 2, 13, 17, 20; Iva at 6, 26; Lys(Eda-GGGGGG-) at 14; C-terminal NH2) [Compound 521] | > 1e-06 |
| YXEGTXISDYSIXLDRXHQXNFVNWXLAQRPSSGAPPPS (N-methyl on Tyr1 (Me-Tyr); Aib at 2, 13, 20; Iva at 6, 26; Lys(Hepda-GGGGGG-) at 17; C-terminal NH2) [Compound 504] | > 1e-06 |
